Numbering of substitutions follows the chain as printed.
Legend:
Test in all cases: cell-based or functional assay
[1] = biological target: T1, factor VIIIa A1/A3C1C2 dimer, R282A (human, UniProt P00451 20-391; P00451 1709-2351)
T1 chain 1: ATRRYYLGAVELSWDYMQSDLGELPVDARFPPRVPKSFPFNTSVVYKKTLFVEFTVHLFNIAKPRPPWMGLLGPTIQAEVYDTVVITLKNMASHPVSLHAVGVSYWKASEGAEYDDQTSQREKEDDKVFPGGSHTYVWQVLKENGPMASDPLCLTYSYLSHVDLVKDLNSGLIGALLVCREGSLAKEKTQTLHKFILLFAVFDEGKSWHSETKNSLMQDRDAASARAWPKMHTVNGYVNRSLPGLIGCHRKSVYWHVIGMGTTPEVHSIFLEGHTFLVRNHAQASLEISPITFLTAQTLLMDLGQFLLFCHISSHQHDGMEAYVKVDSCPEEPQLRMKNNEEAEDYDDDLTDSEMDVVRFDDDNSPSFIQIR
T1 chain 2: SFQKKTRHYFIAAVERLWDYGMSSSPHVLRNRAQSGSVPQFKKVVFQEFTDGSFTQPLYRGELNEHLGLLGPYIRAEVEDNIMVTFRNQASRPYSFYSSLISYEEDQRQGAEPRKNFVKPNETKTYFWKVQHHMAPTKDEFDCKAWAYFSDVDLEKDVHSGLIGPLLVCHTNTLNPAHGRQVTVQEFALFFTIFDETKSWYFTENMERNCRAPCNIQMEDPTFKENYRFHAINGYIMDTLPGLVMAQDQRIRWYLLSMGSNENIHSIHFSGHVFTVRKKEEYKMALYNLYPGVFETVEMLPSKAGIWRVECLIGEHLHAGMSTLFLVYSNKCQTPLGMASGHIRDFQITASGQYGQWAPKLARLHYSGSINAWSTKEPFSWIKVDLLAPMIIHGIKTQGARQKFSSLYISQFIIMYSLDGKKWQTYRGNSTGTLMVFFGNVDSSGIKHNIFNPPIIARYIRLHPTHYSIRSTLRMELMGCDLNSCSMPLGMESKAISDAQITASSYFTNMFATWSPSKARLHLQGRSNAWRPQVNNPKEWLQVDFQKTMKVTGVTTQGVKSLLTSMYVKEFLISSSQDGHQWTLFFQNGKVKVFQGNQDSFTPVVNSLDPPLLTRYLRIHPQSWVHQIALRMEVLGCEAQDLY

[2] = biological target: T2, factor VIIIa A1/A3C1C2 dimer, Y1792F (human, UniProt P00451 20-391; P00451 1709-2351)
T2 sequence 1: T1 chain 1 with A282R
T2 sequence 2: T1 chain 2 with Y103F

[3] = biological target: T3, factor VIIIa A1/A3C1C2 dimer, E1829A (human, UniProt P00451 20-391; P00451 1709-2351)
T3 sequence 1: T1 chain 1 with A282R
T3 sequence 2: T1 chain 2 with E140A

B1: factor VIIIa A2 subunit, wild type (other)
chain: SVAKKHPKTWVHYIAAEEEDWDYAPLVLAPDDRSYKSQYLNNGPQRIGRKYKKVRFMAYTDETFKTREAIQHESGILGPLLYGEVGDTLLIIFKNQASRPYNIYPHGITDVRPLYSRRLPKGVKHLKDFPILPGEIFKYKWTVTVEDGPTKSDPRCLTRYYSSFVNMERDLASGLIGPLLICYKESVDQRGNQIMSDKRNVILFSVFDENRSWYLTENIQRFLPNPAGVQLEDPEFQASNIMHSINGYVFDSLQLSVCLHEVAYWYILSIGAQTDFLSVFFSGYTFKHKMVYEDTLTLFPFSGETVFMSMENPGLWILGCHNSDFRNRGMTALLKVSSCDKNTGDYYEDSYEDISAYLLSKNNAIEPR
[1]
  Factor VIIIa decay rate relative to wild type, FIXa (+): 41.7 relative to wild type
  Factor VIIIa decay rate relative to wild type, FIXa (-): 10.7 relative to wild type
  Factor VIIIa decay rate, FIXa (+): 0.471 min⁻¹
  Factor VIIIa decay rate, FIXa (-): 0.674 min⁻¹
[2]
  Factor VIIIa decay rate relative to wild type, FIXa (+): 38.4 relative to wild type
  Factor VIIIa decay rate relative to wild type, FIXa (-): 11.5 relative to wild type
  Factor VIIIa decay rate, FIXa (+): 0.433 min⁻¹
  Factor VIIIa decay rate, FIXa (-): 0.724 min⁻¹
[3]
  rate of factor VIIIa decay compared with WT, factor IXa present: 5 fold

Source: patent US20090118184A1 (UNIVERSITY OF ROCHESTER, published 2009)
